B1: TPR t1 (parent)
chain: GACCAAUCUGCCCUCAGAGCUCGAGAACAUCUUCGGAUGCAGAGGAGGCAGGCUUCGGUGGCGCGAUAGCGCCAACGUCCUCAACCUCCAAUGCAUCCCACCACAUGAUGAUGCCUGAAGAGCCUUGGUUUUUUG

Variants of: B1
Assay: polymerase ribozyme fitness, log enrichment relative to wild type (log ratio); higher = more active; in vitro selection for triplet polymerase activity
Procedure, shortened: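 Input and output libraries were sequenced on Illumina after a single in vitro selection round, run in triplicate on PCR-built, transcribed mutant libraries of each subunit of a heterodimeric triplet polymerase ribozyme. Selection annealed libraries to a biotinylated primer, the partner subunit and triplets, incubated them frozen at −7 °C, then gel-excised extended constructs for streptavidin-bead capture and RT-PCR. Genotypes with ≥10 input reads and ≥1 read per output were kept. Fitness is the logarithm, taken in base 2, of genotype enrichment divided by wild-type enrichment, using inverse-variance-weighted replicate averages.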

Variant	polymerase ribozyme fitness (log ratio)
C22A G36A U55C U96A A111U	-6.03
A75G A83C G93C	-1.73
G71U C82G G117A	-2.4
G63C G77C U129C	-3.13
C70U U78C U129A	-1.77
G93U U96G C124A	0.232
C72U G110A	-1.45
C11G A37U C70A A83C A121C	0.293
A41U A105C	-5.02
C53G G135U	-1.51
C73A A84U C88A G110A C123A U126C	-4.76
A83C C101G U109A G120A	-7.06
A5C A43G C53U G63C G113C	-3.6
C11G G117C	-1.94
G44A G60U C72U A90U	-1.55
G42C G48A C72G G120A	-1.67
C11U G42C C53A	-2.22
A18U G60U U92G	-3.05
G17U A18C G57C	-2.66
U9G G10U C94U	-0.059
C3U C86U A95U U125G U126G	-3.14

Variant	polymerase ribozyme fitness (log ratio)
G51U G71U C79G	-2.26
G48U G57C U96A	-1.49
C11U A100C G110A	-2.68
A41U G45C C53G C79U C97U	-6.18
C62G A95G U132C	-1.55
U92A U116C	-3.44
C11U C85U	-1.93
G57C G63A A100U U112C U125C	-0.23
A5C C82A U126G	-0.956
A91U U96G G120U	-1.75
C73U U129G	-0.782
C62A A121U	1.32
C62A C101G	-2.98
A50U A84C U125A	-1.62
C11U G113A	-1.33
A2G A16C C89A G120C U133A G135C	-2.39
C3U C56A G69A C72A C101U U112A C123G	-5.58
U9C C34U C56G G77A U106A G113A A121G	-3.53
C72G C114U	-2.37
A27G A46U G57C U81A A83C C104A G117C G122A	-7.94
A68G C114A	-3.39

Variant	polymerase ribozyme fitness (log ratio)
A43U C53U G77U C85G U106A	-5.13
C12U G39C G52C C53A C79A A119U	-1.3
C4G C15A A16U C53A C72U U78C C115U	-3.84
A27U C94G	-5.02
U9C U125A	0.386
C22G A111C	-3.66
G63A C85A C115U	-4.85
C8G C11G G36U G71C U78G U132A	-4.02
G57A G60A	-0.384
C8G	0.574
C13G G52U C70U C123A	-1.13
A74U U126G	-1.89
C12U C40U G42C C80A C88G C102A A111G C123U U134G	-6.19
U9A C11U A100U	-0.0164
A5G G44A G45U G63U C79U C124A	-1.7
U9C C40G C101U	-0.436
U7G G61A C76A C94A G110C G117C	-7.29
C73A A119G	0.838
U14C U33C	-5.43
G42A G60A	-2.03
A50U G93A	-1.21

Variant	polymerase ribozyme fitness (log ratio)
A27C C56G U78C C80U U81A	-3.58
C11G C101U	0.142
C89G C104A	-3.34
C11G C62A U106A	-0.272
G17U A27U G42A A43U C85U C124A U133A	-5.61
U54A C101U G120A	0.15
C34A C80U	-4.3
C8U A46U	-0.626
C49U A75U C79U U116A U130C	-4.3
C79U C94U C98U	-1.64
A41U C56A C72U U92G	-1.3
A24G C49G	-1.9
G39U A43C C62U G127A	-4.5
U14A A46C G69A C101U G110U U126A	-6.24
C13U C73U	-0.351
C3A U9A C28U C53A C94A	-4.65
C28A C72G C123U U125C	-4.42
G39A A46U	-1.28
C8A C80G C82G C88A C114U	-6.78
U9A G120C	1.21

Reference: the RNAGym collection of RNA variant scans (doi:10.1073/pnas.2313332121)
